In PMC11022410, “Synthesis and characterization of water-soluble C60–peptide conjugates” (Beilstein Journal of Organic Chemistry, 2024):

Columns and labels:
[1] = type: physicochemical; settings: for Solubility in Milli-Q water (pH 7.0): from lyophilized solid, Milli-Q water pH 7.0, visual (transparent solution), also with sonication, 5b purified, 5c crude; for Solubilizing solvents (Table S1): list of the solvents used to solubilize the molecules; for Solubility in acidic eluent used for HRESIMS: mixture of MeOH and water containing 0.1% formic acid
Method: The water solubility of C60–peptide conjugates 5a–c was tested after the removal of any remaining solvent traces by lyophilization. […]
Solubility of C60–oligopeptides 5a–c
Table S1. List of the solubilizing solvents for compounds 5a-5c. […]

[2] = Photoinduced 1O2 generation by ESR spin trapping with 4-oxo-TEMP; settings: green LED 527 nm, 1 min or 10 min; PS 40 μM, 4-oxo-TEMP 80 mM, 60 mM phosphate buffer pH 7.0, O2-bubbled, 296 K
Method: To preliminarily evaluate the synthesized C60–oligo-Lys (5a) as a PS, generation of singlet oxygen was measured by the ESR spin trapping method under irradiation of visible light (527 nm green LED). 4-Oxo-TEMP was used as a spin trapping reagent to form an adduct with ^1O2, i.e., 4-oxo-TEMPO, which was observed by ESR (Figure 7b).
Figure 7 a) X-band ESR spectra of the 4-oxo-TEMP adduct with ^1O2 generated by C60–oligo-Lys (5a) and rose bengal (RB), respectively, in aqueous solutions under irradiation with a green LED lamp (527 nm) for 1 min or 10 min. PS: 40 μM, 4-oxo-TEMP: 80 mM, in 60 mM phosphate buffer (pH 7.0). Measurement conditions: temperature 296 K, microwave frequency 10.03 GHz, microwave power 10 mW, receiver gain 5.0 × 10^4, modulation amplitude 1.00 G, modulation frequency 100 KHz, sweep time 83.89 s, number of scans: 1. b) Scheme for the photoinduced ^1O2 generation by C60 and reaction with spin trapping reagent 4-oxo-TEMP to form 4-oxo-TEMPO.
Detection of photoinduced 1O2 generation by ESR spin trapping
ESR measurements were carried out on a Bruker spectrometer equipped with a microwave bridge X-band ER. […]
1O2 generation was detected through the 1O2 adduct of 4-oxo-TEMP generated in an aqueous solution of C60−oligo-Lys (5a) and rose bengal as reference under irradiation by a green LED (527 nm). […]

| SMILES | Solubility in Milli-Q water (pH 7.0) [1] | Solubilizing solvents (Table S1) [1] | Solubility in nonpolar solvents ([1]; most nonpolar solvents, including toluene and CH2Cl2) | Solubility in other polar solvents ([1]; other polar solvents, including MeOH and DMSO) | Solubility in acidic eluent used for HRESIMS [1] | Solubility in polar and nonpolar solvents ([1]; most polar and nonpolar solvents) | Solubility over the tested pH value range ([1]; tested pH value range 4.0–9.2) | 1O2 generation under visible light irradiation (ESR signal of 4-oxo-TEMPO) [2] |
| --- | --- | --- | --- | --- | --- | --- | --- | --- |
| NCCCC[C@H](NC(=O)[C@H](CCCCN)NC(=O)[C@H](CCCCN)NC(=O)[C@H](CCCCN)NC(=O)[C@H](CCCCN)NC(=O)CCCNC(=O)CC(CC(=O)NCCCC(=O)N[C@@H](CCCCN)C(=O)N[C@@H](CCCCN)C(=O)N[C@@H](CCCCN)C(=O)N[C@@H](CCCCN)C(=O)N[C@@H](CCCCN)C(=O)O)N1CC23c4c5c6c7c8c9c(c%10c%11c2c2c4c4c%12c5c5c6c6c8c8c%13c9c9c%10c%10c%11c%11c2c2c4c4c%12c%12c5c5c6c8c6c8c%13c9c9c%10c%10c%11c2c2c4c4c%12c5c6c5c8c9c%10c2c45)C73C1)C(=O)O (stereo partly shown) [5a, C60–oligo-Lys] | immediately and thoroughly solubilized | water (pH 4.0–9.2), MeOH, DMSO | not highly soluble | slightly soluble |  |  |  |  |
| N=C(N)NCCC[C@H](NC(=O)[C@H](CCCNC(=N)N)NC(=O)[C@H](CCCNC(=N)N)NC(=O)[C@H](CCCNC(=N)N)NC(=O)[C@H](CCCNC(=N)N)NC(=O)CCCNC(=O)CC(CC(=O)NCCCC(=O)N[C@@H](CCCNC(=N)N)C(=O)N[C@@H](CCCNC(=N)N)C(=O)N[C@@H](CCCNC(=N)N)C(=O)N[C@@H](CCCNC(=N)N)C(=O)N[C@@H](CCCNC(=N)N)C(=O)O)N1CC23c4c5c6c7c8c9c(c%10c%11c2c2c4c4c%12c5c5c6c6c8c8c%13c9c9c%10c%10c%11c%11c2c2c4c4c%12c%12c5c5c6c8c6c8c%13c9c9c%10c%10c%11c2c2c4c4c%12c5c6c5c8c9c%10c2c45)C73C1)C(=O)O (stereo partly shown) [5c, C60–oligo-Arg] | did not produce transparent solutions | insoluble in most solvents |  |  | slightly soluble | not soluble in most polar and nonpolar solvents | remained insoluble |  |
| O=C([O-])c1c(Cl)c(Cl)c(Cl)c(Cl)c1-c1c2cc(I)c(=O)c(I)c-2oc2c(I)c([O-])c(I)cc12.[Na+].[Na+] [rose bengal] |  |  |  |  |  |  |  | three peaks corresponding to 4-oxo-TEMPO were observed |
| O=C(O)CC[C@H](NC(=O)[C@H](CCC(=O)O)NC(=O)[C@H](CCC(=O)O)NC(=O)[C@H](CCC(=O)O)NC(=O)[C@H](CCC(=O)O)NC(=O)CCCNC(=O)CC(CC(=O)NCCCC(=O)N[C@@H](CCC(=O)O)C(=O)N[C@@H](CCC(=O)O)C(=O)N[C@@H](CCC(=O)O)C(=O)N[C@@H](CCC(=O)O)C(=O)N[C@@H](CCC(=O)O)C(=O)O)N1CC23c4c5c6c7c8c9c(c%10c%11c2c2c4c4c%12c5c5c6c6c8c8c%13c9c9c%10c%10c%11c%11c2c2c4c4c%12c%12c5c5c6c8c6c8c%13c9c9c%10c%10c%11c2c2c4c4c%12c5c6c5c8c9c%10c2c45)C73C1)C(=O)O (stereo partly shown) [5b, C60–oligo-Glu] | did not produce transparent solutions | 25 mM TRIS buffer (pH > 8.3), 2% NaOD in D2O (pH 13.7) |  |  | insolubility |  |  |  |
